From the Immune Epitope Database (IEDB)

Experiments:
HLA-A*69:01 = test: IEDB peptide-MHC binding, purified MHC/direct/fluorescence; filed as Kd, often an IC50 or EC50 that approximates it; ≥ and ≤ were set here for values at or beyond the usual limits of such assays
HLA-A*30:01 = test: IEDB peptide-MHC binding, purified MHC/competitive/radioactivity; filed as Kd, often an IC50 or EC50 that approximates it; ≥ and ≤ were set here for values at or beyond the usual limits of such assays
HLA-B*58:01 = test: IEDB peptide-MHC binding, purified MHC/direct/fluorescence; filed as Kd, often an IC50 or EC50 that approximates it; ≥ and ≤ were set here for values at or beyond the usual limits of such assays; conditions: source organism: Mycobacterium tuberculosis F11
HLA-A*03:01 [1] = test: as above; conditions: source organism: Escherichia coli
HLA-A*02:02 = test: IEDB peptide-MHC binding, purified MHC/competitive/radioactivity; filed as Kd, often an IC50 or EC50 that approximates it; ≥ and ≤ were set here for values at or beyond the usual limits of such assays
HLA-A*02:03 = test: as above
HLA-A*02:06 = test: as above
HLA-A*11:01 [2] = test: IEDB peptide-MHC binding, purified MHC/direct/fluorescence; filed as Kd, often an IC50 or EC50 that approximates it; ≥ and ≤ were set here for values at or beyond the usual limits of such assays; conditions: source organism: Yellow fever virus
HLA-B*15:01 = test: as above; conditions: source organism: Pseudomonas aeruginosa
HLA-A*02:01 [3] = test: IEDB peptide-MHC binding, purified MHC/competitive/fluorescence; ≥ and ≤ were set here for values at or beyond the usual limits of such assays
HLA-A*03:01 [4] = test: IEDB peptide-MHC binding, purified MHC/competitive/radioactivity; filed as Kd, often an IC50 or EC50 that approximates it; ≥ and ≤ were set here for values at or beyond the usual limits of such assays; conditions: source organism: Dengue virus 1 Brazil/97-11/1997
HLA-A*11:01 [5] = test: as above; conditions: source organism: Dengue virus 1 Brazil/97-11/1997
HLA-A*02:01 [6] = test: IEDB peptide-MHC binding, purified MHC/competitive/fluorescence; filed as Kd, often an IC50 or EC50 that approximates it; ≥ and ≤ were set here for values at or beyond the usual limits of such assays
HLA-A*02:01 [7] = test: IEDB peptide-MHC binding, purified MHC/direct/fluorescence; filed as Kd, often an IC50 or EC50 that approximates it; ≥ and ≤ were set here for values at or beyond the usual limits of such assays; conditions: source organism: Francisella tularensis subsp. holarctica LVS
[8] = source organism: Vaccinia virus WR
[9] = source organism: Vaccinia virus Copenhagen
[10] = source organism: SARS coronavirus Tor2
[11] = source organism: West Nile virus

NASQHPQQV
Kd (HLA-A*69:01; source organism: Salmonella enterica subsp. enterica serovar Typhimurium): 571 nM

HLSNSFFIK
Kd (HLA-A*30:01; [8]): 17.3 nM

VSTAVAALF
Kd (HLA-B*58:01): 32.6 nM

GLGSFVARK
Kd (HLA-A*03:01 [1]): 209 nM

RFLTIPPTA
Kd (HLA-A*30:01; source organism: Dengue virus 2 Jamaica/1409/1983): 60.5 nM

FVVNGHTCM
Kd (HLA-A*02:02; [8]): 6640 nM | Kd (HLA-A*02:03; [8]): 5900 nM | Kd (HLA-A*02:06; [8]): 1810 nM

NLFDIPLLT
Kd (HLA-A*02:02; [9]): 135 nM | Kd (HLA-A*02:03; [9]): 36.3 nM | Kd (HLA-A*02:06; [9]): 1540 nM

AQMGTLLIA
Kd (HLA-A*02:02; [10]): 64.5 nM | Kd (HLA-A*02:03; [10]): 1.55 nM | Kd (HLA-A*02:06; [10]): 0.442 nM

RMGERQLQK
Kd (HLA-A*11:01 [2]): 29.5 nM

RMPTDMLKL
Kd (HLA-A*02:02; [8]): 950 nM | Kd (HLA-A*02:03; [8]): 106 nM | Kd (HLA-A*02:06; [8]): 678 nM

YLGIFKNNDV
Kd (HLA-A*02:02; [8]): 14.8 nM | Kd (HLA-A*02:03; [8]): 16.9 nM | Kd (HLA-A*02:06; [8]): 285 nM

DQDTMLFASA
Kd (HLA-A*02:02; [8]): 891 nM | Kd (HLA-A*02:03; [8]): 663 nM | Kd (HLA-A*02:06; [8]): 1720 nM

YLSDSDNIKI
Kd (HLA-A*02:02; [8]): 16.3 nM | Kd (HLA-A*02:03; [8]): 109 nM | Kd (HLA-A*02:06; [8]): 906 nM

AMLHWSLIL
Kd (HLA-A*69:01; source organism: Yellow fever virus 17D): ≥ 20000 nM

KVMFVIRFK
Kd (HLA-A*30:01; [8]): 0.597 nM

NQRETTVVW
Kd (HLA-B*15:01): 133 nM

RLKVFLPNP
IC50 (HLA-A*02:01 [3]; source organism: Variola virus): 9430 nM

NQDGLICGL
IC50 (HLA-A*02:01 [3]; source organism: Zaire ebolavirus): 28400 nM

SILLSSLLK
Kd (HLA-A*03:01 [4]): 8.01 nM | Kd (HLA-A*11:01 [5]): 19.3 nM | Kd (HLA-A*30:01; source organism: Dengue virus 1 Brazil/97-11/1997): 2140 nM

TVVPLMAFL
Kd (HLA-A*02:01 [6]; source organism: Bacillus cereus G9241): 48.5 nM

DTEFINKFL
Kd (HLA-A*02:02; [8]): 7420 nM | Kd (HLA-A*02:03; [8]): ≥ 42700 nM | Kd (HLA-A*02:06; [8]): ≥ 77100 nM

FTLDADLGI
Kd (HLA-A*02:01 [7]): 8.2 nM | Kd (HLA-A*69:01; source organism: Francisella tularensis subsp. holarctica LVS): 2.2 nM

VMPEKRNVVV
Kd (HLA-A*02:02; [8]): 3540 nM | Kd (HLA-A*02:03; [8]): 299 nM | Kd (HLA-A*02:06; [8]): ≥ 27700 nM

FSTLDKITD
IC50 (HLA-A*02:01 [3]; source organism: Variola virus): 53600 nM

SLARGFPFV
Kd (HLA-A*69:01; [11]): ≤ 1 nM | Kd (HLA-A*02:01 [6]; [11]): 1.23 nM
